# Measurements published in patent US7892767B2, “Phosphospecific chemokine receptor antibodies” (Washington University in St. Louis, priority 2005, dated 2011).
# Molecular target: T1, CXCR4 (Homo sapiens, UniProt P61073)
# T1 construct: lysates from the glioblastoma cell line LN428, which is known to express high levels of CXCR4; endogenous in cells; host or cells: LN428 GBM cell line
# Assay: Stimulated CXCR4 phosphorylation in LN428 GBM cells (western blot)
# Format: cell-based
# Experimental: Cell Culture, transfections and stimulation of CXCR4 phosphorylation. The U87 glioblastoma multiforme (GBM, grade IV) cell line was obtained from the American Type Culture Collection. The LN428 GBM cell line was a kind gift of Dr Erwin van Meir (Winship Cancer Center, Emory University, Atlanta, Ga.). U87 cells were grown in minimum essential a media supplemented with 10% fetal bovine serum ((FBS), Biomedia, Foster City, Calif.). LN428 cells were grown in DMEM (Fisher, Pittsburgh, Pa.) supplemented with 10% horse serum (Sigma). All cells were grown in the presence of penicillin-streptomycin. The coding sequence for human CXCR4 was obtained by high fidelity RT-PCR (Superscript III Platinum, Invitrogen), and cloned into the expression vector pMSCVneo (Clontech, Palo Alto, Calif.). Transfections were performed with 0.3 μg of plasmid DNA in 20 μl Lipofectamine (Invitrogen)/35 mm^2 tissue culture dish for 9 hours according to the manufacturer's instructions. Cells recovered in Optimem supplemented with 10% FBS. Transfected and non-transfected cells were placed in serum free media for 24 hours prior to treatment with agents to stimulate CXCR4 phosphorylation. Treatment was usually for 0 or 10 minutes with 1 μg/ml CXCL12 (Peprotech, Rocky Hill N.J.), 4 μM 4-Phorbol 12-myristate 13-acetate (PMA) or 10 nM EGF. In some experiments, CXCL12 was washed away and cells were incubated for an additional 20 minutes in serum free media alone.
# Western Blot Analysis. […] Peroxide activity was detected using the enhanced chemiluminescence Supersignal West Dura system (Pierce, Rockford, Ill.). […]
# The utility of these antibodies for evaluating the relationship between ligand binding and CXCR4 function is dependent upon their ability to distinguish a ligand activated form of the receptor. […] Serum starved LN428 cells were treated with 1 μg/ml CXCL12 for 0 or 10 minutes and the abundance of phospho-CXCR4 was determined by western blot and immuno-localization in fixed cells. […]
# [1] = 1 μg/ml CXCL12, 4 μM PMA or 10 nM EGF
# T1 sequence (P61073 whole entry): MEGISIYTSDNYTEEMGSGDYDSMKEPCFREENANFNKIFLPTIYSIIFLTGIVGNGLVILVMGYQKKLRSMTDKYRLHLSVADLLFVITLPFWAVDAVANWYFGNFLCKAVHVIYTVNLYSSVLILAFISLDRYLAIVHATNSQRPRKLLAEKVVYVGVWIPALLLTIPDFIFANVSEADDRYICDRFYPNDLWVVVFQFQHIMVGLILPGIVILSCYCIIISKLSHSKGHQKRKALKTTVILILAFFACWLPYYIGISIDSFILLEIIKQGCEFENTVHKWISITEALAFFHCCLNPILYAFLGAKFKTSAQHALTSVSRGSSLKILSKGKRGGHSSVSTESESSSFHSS
molecule,measurement,setting,value
"EGF: growth factor, ligand of the EGF receptor (protein, UniProt P01133 23-1207, looked up, Pro-epidermal growth factor, growth factor, ligand of the EGF receptor) Pro-epidermal growth factor: PQHWSCPEGTLAGNGNSTCVGPAPFLIFSHGNSIFRIDTEGTNYEQLVVDAGVSVIMDFHYNEKRIYWVDLERQLLQRVFLNGSRQERVCNIEKNVSGMAINWINEEVIWSNQQEGIITVTDMKGNNSHILLSALKYPANVAVDPVERFIFWSSEVAGSLYRADLDGVGVKALLETSEKITAVSLDVLDKRLFWIQYNREGSNSLICSCDYDGGSVHISKHPTQHNLFAMSLFGDRIFYSTWKMKTIWIANKHTGKDMVRINLHSSFVPLGELKVVHPLAQPKAEDDTWEPEQKLCKLRKGNCSSTVCGQDLQSHLCMCAEGYALSRDRKYCEDVNECAFWNHGCTLGCKNTPGSYYCTCPVGFVLLPDGKRCHQLVSCPRNVSECSHDCVLTSEGPLCFCPEGSVLERDGKTCSGCSSPDNGGCSQLCVPLSPVSWECDCFPGYDLQLDEKSCAASGPQPFLLFANSQDIRHMHFDGTDYGTLLSQQMGMVYALDHDPVENKIYFAHTALKWIERANMDGSQRERLIEEGVDVPEGLAVDWIGRRFYWTDRGKSLIGRSDLNGKRSKIITKENISQPRGIAVHPMAKRLFWTDTGINPRIESSSLQGLGRLVIASSDLIWPSGITIDFLTDKLYWCDAKQSVIEMANLDGSKRRRLTQNDVGHPFAVAVFEDYVWFSDWAMPSVMRVNKRTGKDRVRLQGSMLKPSSLVVVHPLAKPGADPCLYQNGGCEHICKKRLGTAWCSCREGFMKASDGKTCLALDGHQLLAGGEVDLKNQVTPLDILSKTRVSEDNITESQHMLVAEIMVSDQDDCAPVGCSMYARCISEGEDATCQCLKGFAGDGKLCSDIDECEMGVPVCPPASSKCINTEGGYVCRCSEGYQGDGIHCLDIDECQLGEHSCGENASCTNTEGGYTCMCAGRLSEPGLICPDSTPPPHLREDDHHYSVRNSDSECPLSHDGYCLHDGVCMYIEALDKYACNCVVGYIGERCQYRDLKWWELRHAGHGQQQKVIVVAVCVVVLVMLLLLSLWGAHYYRTQKLLSKNPKNPYEESSRDVRSRRPADTEDGMSSCPQPWFVVIKEHQDLKNGGQPVAGEDGQAADGSMQPTSWRQEPQLCGMGTEQGCWIPVSSDKGSCPQVMERSFHMPSYGTQTLEGGVEKPHSLLSANPLWQQRALDPPHQMELTQ",P338 phosphorylation stimulated,[1],not
same,P339 phosphorylation,[1],stimulated
same,P339-CXCR4 immunoreactivity compared with response to CXCL12,4 μM PMA or 10 nM EGF,greater
